Results taken from patent US20240350835A1 (AMBRX, published 2024).

Molecular target: prostate specific membrane antigen (PSMA) (UniProt Q04609 1-750, limits assumed)
Experiment: cell-based or functional assay

Sequence of prostate specific membrane antigen (PSMA) (Q04609 whole entry): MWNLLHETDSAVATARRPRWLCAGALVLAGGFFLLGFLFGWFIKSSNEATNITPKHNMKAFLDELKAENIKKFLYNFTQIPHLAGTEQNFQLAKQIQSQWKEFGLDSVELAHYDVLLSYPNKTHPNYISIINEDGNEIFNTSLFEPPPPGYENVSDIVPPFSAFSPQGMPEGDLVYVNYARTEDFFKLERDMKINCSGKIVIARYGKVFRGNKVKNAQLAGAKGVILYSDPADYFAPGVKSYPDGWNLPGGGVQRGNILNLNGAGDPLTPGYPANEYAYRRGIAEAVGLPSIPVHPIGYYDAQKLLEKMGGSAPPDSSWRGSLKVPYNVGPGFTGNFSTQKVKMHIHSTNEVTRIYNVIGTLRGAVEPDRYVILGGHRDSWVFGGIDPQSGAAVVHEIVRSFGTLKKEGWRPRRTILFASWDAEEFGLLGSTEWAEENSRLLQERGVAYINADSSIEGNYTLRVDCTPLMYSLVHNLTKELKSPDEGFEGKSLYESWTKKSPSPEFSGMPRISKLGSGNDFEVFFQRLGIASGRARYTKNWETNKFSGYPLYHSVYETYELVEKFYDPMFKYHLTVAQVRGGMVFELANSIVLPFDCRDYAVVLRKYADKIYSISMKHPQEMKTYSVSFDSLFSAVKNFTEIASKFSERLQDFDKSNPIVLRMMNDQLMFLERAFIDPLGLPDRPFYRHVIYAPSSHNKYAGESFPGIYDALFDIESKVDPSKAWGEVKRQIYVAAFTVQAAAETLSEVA

Row | Binder | Cell Killing (%), C4-2 cell line | IC50 (nM), in vitro cell killing in C4-2 cell line (Cell Titer Glo, 96 h)
1 | Chimeric Anti-PSMA Antibody ADC, MMAF payload, Non-Cleavable (PEG3) linker (antibody, human IgG1, kappa, V domains shown, para-acetyl phenylalanine (pAF) at position A114 (Kabat numbering; first residue of the heavy chain constant region), conjugated to non-cleavable (PEG3) MMAF drug-linker) VH: EVQLQQSGPELVKPGTSVRISCKTSGYTFTEYTIHWVKQSHGKSLEWIGNINPNNGGTTYNQKFEDKATLTVDKSSSTAYMELRSLTSEDSAVYYCAAGWNFDYWGQGTTLTVSS VL: DIVMTQSHKFMSTSVGDRVSIICKASQDVGTAVDWYQQKPGQSPKLLIYWASTRHTGVPDRFTGSGSGTDFTLTITNVQSEDLADYFCQQYNSYPLTFGAGTKVEIKR | 89.5% | 0.295 nM
2 | Chimeric Anti-PSMA Antibody ADC, MMAF payload, Short Cleavable (Valine-Citruline-Acetyl) linker (antibody, human IgG1, kappa, V domains shown, para-acetyl phenylalanine (pAF) at position A114 (Kabat numbering; first residue of the heavy chain constant region), conjugated to short cleavable (Valine-Citruline-Acetyl) MMAF drug-linker) VH: EVQLQQSGPELVKPGTSVRISCKTSGYTFTEYTIHWVKQSHGKSLEWIGNINPNNGGTTYNQKFEDKATLTVDKSSSTAYMELRSLTSEDSAVYYCAAGWNFDYWGQGTTLTVSS VL: DIVMTQSHKFMSTSVGDRVSIICKASQDVGTAVDWYQQKPGQSPKLLIYWASTRHTGVPDRFTGSGSGTDFTLTITNVQSEDLADYFCQQYNSYPLTFGAGTKVEIKR | 94.5% | 0.049 nM
3 | Chimeric Anti-PSMA Antibody ADC, MMAF payload, Cleavable (Val-Citruline-PEG1) linker (antibody, human IgG1, kappa, V domains shown, para-acetyl phenylalanine (pAF) at position A114 (Kabat numbering; first residue of the heavy chain constant region), conjugated to cleavable (Val-Citruline-PEG1) MMAF drug-linker) VH: EVQLQQSGPELVKPGTSVRISCKTSGYTFTEYTIHWVKQSHGKSLEWIGNINPNNGGTTYNQKFEDKATLTVDKSSSTAYMELRSLTSEDSAVYYCAAGWNFDYWGQGTTLTVSS VL: DIVMTQSHKFMSTSVGDRVSIICKASQDVGTAVDWYQQKPGQSPKLLIYWASTRHTGVPDRFTGSGSGTDFTLTITNVQSEDLADYFCQQYNSYPLTFGAGTKVEIKR | 89.5% | 0.047 nM
4 | Chimeric Anti-PSMA Antibody ADC, MMAE payload, Non-Cleavable (PEG3) linker (antibody, human IgG1, kappa, V domains shown, para-acetyl phenylalanine (pAF) at position A114 (Kabat numbering; first residue of the heavy chain constant region), conjugated to non-cleavable (PEG3) MMAE drug-linker) VH: EVQLQQSGPELVKPGTSVRISCKTSGYTFTEYTIHWVKQSHGKSLEWIGNINPNNGGTTYNQKFEDKATLTVDKSSSTAYMELRSLTSEDSAVYYCAAGWNFDYWGQGTTLTVSS VL: DIVMTQSHKFMSTSVGDRVSIICKASQDVGTAVDWYQQKPGQSPKLLIYWASTRHTGVPDRFTGSGSGTDFTLTITNVQSEDLADYFCQQYNSYPLTFGAGTKVEIKR | 62.5% | 10.2 nM
5 | Chimeric Anti-PSMA Antibody ADC, MMAE payload, Short Cleavable (Valine-Citruline-Acetyl) linker (antibody, human IgG1, kappa, V domains shown, para-acetyl phenylalanine (pAF) at position A114 (Kabat numbering; first residue of the heavy chain constant region), conjugated to short cleavable (Valine-Citruline-Acetyl) MMAE drug-linker) VH: EVQLQQSGPELVKPGTSVRISCKTSGYTFTEYTIHWVKQSHGKSLEWIGNINPNNGGTTYNQKFEDKATLTVDKSSSTAYMELRSLTSEDSAVYYCAAGWNFDYWGQGTTLTVSS VL: DIVMTQSHKFMSTSVGDRVSIICKASQDVGTAVDWYQQKPGQSPKLLIYWASTRHTGVPDRFTGSGSGTDFTLTITNVQSEDLADYFCQQYNSYPLTFGAGTKVEIKR | 82.5% | 0.425 nM
6 | Humanized Anti-PSMA Antibody Variant 1 ADC, MMAE payload, Non-Cleavable (PEG3) linker (antibody, human IgG1, kappa, V domains shown, para-acetyl phenylalanine (pAF) at position A114 (Kabat numbering; first residue of the heavy chain constant region), conjugated to non-cleavable (PEG3) MMAE drug-linker) VH: QVQLVQSGAEVKKPGASVKVSCKASGYTFTEYTIHWVRQAPGQRLEWMGNINPNNGGTTYNQKFEDRVTITRDTSASTAYMELSSLRSEDTAVYYCAAGWNFDYWGQGTTLTVSS VL: DIQLTQSPSFLSASVGDRVTITCKASQDVGTAVDWYQQKPGKAPKLLIYWASTRHTGVPSRFSGSGSGTEFTLTISSLQPEDFATYYCQQYNSYPLTFGGGTKVEIKR | 64.5% | 11.3 nM
7 | Humanized Anti-PSMA Antibody Variant 2 ADC, MMAF payload, Non-Cleavable (PEG3) linker (antibody, human IgG1, kappa, V domains shown, para-acetyl phenylalanine (pAF) at position A114 (Kabat numbering; first residue of the heavy chain constant region), conjugated to non-cleavable (PEG3) MMAF drug-linker) VH: QVQLVQSGAEVKKPGASVKVSCKASGYTFTEYTIHWVRQAPGQRLEWMGNINPNNGGTTYNQKFEDRVTITRDTSASTAYMELSSLRSEDTAVYYCAAGWNFDYWGQGTTLTVSS VL: DIQLTQSPSFLSASVGDRVTITCKASQDVGTAVDWYQQKPGKAPKLLIYWASTRHTGVPSRFSGSGSGTEFTLTISSLQSEDFATYYCQQYNSYPLTFGGGTKVEIKR | 81% | 0.503 nM
8 | Humanized Anti-PSMA Antibody Variant 1 ADC, MMAE payload, Short Cleavable (Valine-Citruline-Acetyl) linker (antibody, human IgG1, kappa, V domains shown, para-acetyl phenylalanine (pAF) at position A114 (Kabat numbering; first residue of the heavy chain constant region), conjugated to short cleavable (Valine-Citruline-Acetyl) MMAE drug-linker) VH: QVQLVQSGAEVKKPGASVKVSCKASGYTFTEYTIHWVRQAPGQRLEWMGNINPNNGGTTYNQKFEDRVTITRDTSASTAYMELSSLRSEDTAVYYCAAGWNFDYWGQGTTLTVSS VL: DIQLTQSPSFLSASVGDRVTITCKASQDVGTAVDWYQQKPGKAPKLLIYWASTRHTGVPSRFSGSGSGTEFTLTISSLQPEDFATYYCQQYNSYPLTFGGGTKVEIKR | 81.5% | 0.542 nM
9 | Humanized Anti-PSMA Antibody Variant 2 ADC, MMAF payload, Short Cleavable (Valine-Citruline-Acetyl) linker (antibody, human IgG1, kappa, V domains shown, para-acetyl phenylalanine (pAF) at position A114 (Kabat numbering; first residue of the heavy chain constant region), conjugated to short cleavable (Valine-Citruline-Acetyl) MMAF drug-linker) VH: QVQLVQSGAEVKKPGASVKVSCKASGYTFTEYTIHWVRQAPGQRLEWMGNINPNNGGTTYNQKFEDRVTITRDTSASTAYMELSSLRSEDTAVYYCAAGWNFDYWGQGTTLTVSS VL: DIQLTQSPSFLSASVGDRVTITCKASQDVGTAVDWYQQKPGKAPKLLIYWASTRHTGVPSRFSGSGSGTEFTLTISSLQSEDFATYYCQQYNSYPLTFGGGTKVEIKR | 91% | 0.053 nM
